{
  "source": "patent US10562957B2",
  "about": "“Albumin-purification method comprising a nanofiltration step, solution, and composition for therapeutic use containing the same” (LABORATOIRE FRANCAIS DU FRACTIONNEMENT ET DES …, priority 2004, dated 2020)",
  "biological_target": "von Willebrand factor (vWf) (Homo sapiens, UniProt P04275)",
  "assay": "Stabilisation of vWf by nanofiltered albumin: freeze-drying and dry heating at 80° C. for 72 hours",
  "assay_type": "physicochemical",
  "conditions": "preliminary tests: vWf solution with glycine and arginine, no albumin, dry heating 80° C.",
  "procedure": "The power of the nanofiltered albumin to stabilise von Willebrand factor (vWf) was assessed using dry heating tests of vWf at 80° C. for 72 hours.\nThese solutions are then submitted to freeze-drying (45±3 hours) and dry heating as defined above. After heating, the addition of purified water for injection (PWI) to the dry residues reconstitutes solutions A11-A12. The following parameters are analysed: appearance of the solution, dissolution time, activity of vWf and multimeric profile, as measured by electrophoresis.",
  "data": [
    {"substance": "vWf: von Willebrand factor solution stabilised with glycine and arginine, without albumin", "values": [
      {"measurement": "activity of vWf (vWf:Ag) compared to the non-heated vWf", "value": "> 82", "unit": "%"},
      {"measurement": "multimeric profile", "value": "not maintained"}
    ]}
  ]
}
